The record followed here is publication PMC3825789 (Nature biotechnology, 2013).

The experiment concerns the target insulin (Homo sapiens (species ), UniProt P01308). Put plainly: ELISA. On the technique in general: An ELISA detects its analyte on a solid surface through an enzyme-linked reagent.

insulin, sequence (P01308 whole entry, looked up): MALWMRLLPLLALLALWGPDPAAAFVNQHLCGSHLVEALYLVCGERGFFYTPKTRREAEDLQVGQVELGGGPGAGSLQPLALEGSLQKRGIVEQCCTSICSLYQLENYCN

B1: ibalizumab L chain mutant LM52 (antibody, V domains shown)
VH: QVQLQQSGPEVVKPGASVKMSCKASGYTFTSYVIHWVRQKPGQGLDWIGYINPYNDGTDYDEKFKGKATLTSDTSTSTAYMELSSLRSEDTAVYYCAREKDNYATGAWFAYWGQGTLVTVSS
VL: DIVMTQSPDSLAVSLGERVTMNCKSSQSLLYSTNQKNYLAWYQQKPGQSPKLLIYWANSTESGVPDRFSGSGSGTDFTLTISSVQAEDVAVYYCQQYYSYRTFGGGTKLEIK
Regarding B1, the binding result is listed as “no binding”.

B2: ibalizumab (wild type) (antibody, V domains shown)
VH: QVQLQQSGPEVVKPGASVKMSCKASGYTFTSYVIHWVRQKPGQGLDWIGYINPYNDGTDYDEKFKGKATLTSDTSTSTAYMELSSLRSEDTAVYYCAREKDNYATGAWFAYWGQGTLVTVSS
VL: DIVMTQSPDSLAVSLGERVTMNCKSSQSLLYSTNQKNYLAWYQQKPGQSPKLLIYWASTRESGVPDRFSGSGSGTDFTLTISSVQAEDVAVYYCQQYYSYRTFGGGTKLEIK
Turning to B2, the binding result is on record as “no binding”.
